Test results reported in article PMC7326492 (eLife, 2020).
Substitutions are numbered along the chain they refer to.

T1: ACVR1 (UniProt Q04771 21-123)
T1 sequence (looked up): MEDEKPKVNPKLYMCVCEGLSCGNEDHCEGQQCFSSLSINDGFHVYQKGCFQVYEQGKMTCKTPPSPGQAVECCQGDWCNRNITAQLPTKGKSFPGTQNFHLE

T2: human ACVR2B.Fc fusion protein (human, UniProt Q13705 19-137)
T2 construct: Probably the extracellular domain (surmise); Captured on Protein A in one SPR experiment, coupled to the chip in another
T2 sequence (looked up): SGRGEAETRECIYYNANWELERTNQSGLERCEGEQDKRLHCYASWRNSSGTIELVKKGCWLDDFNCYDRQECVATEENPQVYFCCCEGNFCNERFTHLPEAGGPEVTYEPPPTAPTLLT

T3: Activin A.∆D406 (human, UniProt P08476 311-426, ∆D406)
T3 sequence: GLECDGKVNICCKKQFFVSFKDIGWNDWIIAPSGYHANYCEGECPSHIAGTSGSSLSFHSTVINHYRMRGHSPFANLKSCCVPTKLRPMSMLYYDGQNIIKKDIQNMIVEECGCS

T4: monomeric extracellular domain of ACVR2B (UniProt Q13705 19-137)
T4 construct: ACVR2B, extracellular domain, monomeric
T4 sequence (looked up): T2 sequence (looked up)

B1: Activin A.Nod.F2TL (ligand)
chain: T3 sequence with G96N, Q97G, N98R
B2: Activin A.∆D406 (ligand, human, UniProt P08476 311-426, looked up)
chain: T3 sequence
notes: also called ActA.ΔD406; source: CHO-K1 cells expressing human Furin, stably expressed, purified (heparin, size exclusion, C4 reverse phase)
B3: human ACVR2B.Fc fusion protein (Fc fusion)
chain: T2 sequence (looked up)
B4: Activin A (ligand, human, UniProt P08476 311-426, looked up)
chain: GLECDGKVNICCKKQFFVSFKDIGWNDWIIAPSGYHANYCEGECPSHIAGTSGSSLSFHSTVINHYRMRGHSPFANLKSCCVPTKLRPMSMLYYDDGQNIIKKDIQNMIVEECGCS
notes: Activin A (inhibin beta A chain), human, mature region cloned downstream of the mouse Inhba pro-peptide; the mature dimer was isolated; rhActivin A from R and D Systems is named only for the in vivo implants; also called wild-type Activin A; Activin A WT; source: CHO-K1 cells expressing human Furin, stably expressed, purified (heparin, size exclusion, C4 reverse phase)

Tests used:
ACVR1 [1] = target: ACVR1 (UniProt Q04771)
[2] = target: B3; assay: SPR
[3] = target: B3; assay: SPR
ACVR1 [4] = target: T1, ACVR1; assay: cell-based or functional assay
[5] = target: T2, human ACVR2B.Fc fusion protein; assay: SPR; Biacore 3000, CM5 chip; human ACVR2B.Fc captured on covalently immobilised Protein A; ligand 100nM-0.14 nM flowed at 100 uL/minute; 25°C; HBS-EP (10 mM Hepes, 150 mM NaCl, 3.4 mM EDTA, 0.05% polysorbate 20, pH 7.4); 1:1 binding model with mass transport limitation; details: both partners purified
Activin A.∆D406 [6] = target: T3, Activin A.∆D406; assay: SPR
Activin A.∆D406 [7] = target: T3, Activin A.∆D406; assay: SPR; remark: listed apart in the source
[8] = target: T4, monomeric extracellular domain of ACVR2B; assay: SPR; complexes of ligand•type II receptor extracellular domain formed at 1:2.5 ratio and injected over captured ACVR1B-Fc and ACVR1-Fc; details: both partners purified

Molecule	koff [2] [s⁻¹]	Kd [3] [pM]	binding result [5]	also measured
Activin A (from UniProt P08476 311-426) (ligand)				IC50 of inhibition of BMP7 (12 nM)-induced Smad1/5/8 luciferase reporter signal in HEK293 cells (ACVR1 [1]): 1400 pM
B1	0.00027	5.11		
B2			binds	IC50 of inhibition of BMP7 (12 nM)-induced Smad1/5/8 luciferase reporter signal in HEK293 cells (ACVR1 [4]): 20000 pM
B3				koff (Activin A.∆D406 [6]): 0.000254 s⁻¹; Kd (Activin A.∆D406 [7]): 4.62 pM
B4	8.46e-05	4.49	binds	binding result [8]: binds
